From patent US20170247440A1 (Hoffmann-La Roche, published 2017)

Tests used:
[1] = molecular target: T1, cynomolgus PDGF-BB (cynomolgus, UniProt A0A2K5UX81 82-190, Disulfide-linked homodimer of two identical B chains; one copy is given.); test: SPR, apparent KD (avidity), IgG on immobilized cynomolgus PDGF-BB (Example 18)
T1 construct: also called cynPDGF-BB
Procedure: (§1) The binding analysis was carried out using a surface plasmon resonance spectroscopy-based technology applying a BIAcore B4000 system (GE Healthcare). The antigen cynomolgus PDGF-BB was immobilized at a concentration of 1 μg/mL in PBS, 0.1% BSA, 0.05% Tween using amine coupling chemistry on a C1 sensor chip (GE Healthcare, Cat. No. BR-1005-35). Anti-PDGF-BB antibody in increasing concentrations was applied in 10 mM HEPES pH 7.2, 150 mM NaCl. Utilizing a read out time of 180 sec. association phase and 600 sec. dissociation phase the apparent kₐ and apparent kd were calculated. The apparent KD (avidity) was calculated using the BIAcore T200 v2.0 fitting software.

[2] = molecular target: rat PDGF-BB (rat, UniProt Q05028 74-182); test: ELISA, immobilized rat PDGF-BB (Example 12)
Procedure: (§2) The binding analysis was carried out using an enzyme-linked immunosorbent assay (ELISA)-based technology. The antigen rat PDGF-BB (R&D, 520-BB) was immobilized at a concentration of 125 ng/mL in 25 μL in PBS, 0.5% BSA and 0.05% Tween on a 384 well microtiter plate (Thermo Scientific, Cat. No. 464718). Every of the following steps was followed by a washing routine of 3 times 90 μL PBS, 0.5% BSA, 0.05 Tween with dispense and aspiration: 1) blocking step: saturating unbound surface (1 hour, 2% BSA); 2) anti-PDGF-BB antibody in increasing concentrations for 1 hour; 3) detection antibody, dilution=1:3000 (ECL anti-rabbit IgG-POD, NA9340V+ECL anti-human IgG-POD, NA933V or alternatively for murine antibodies ECL anti-mouse IgG-POD; NA 9310V). 20-30 min. after adding the substrate 3,3′,5,5′-tetramethylbenzidine (TMB, Piercenet, Cat. No. 34021) the optical density was determined at 370 nm. The EC₅₀ was calculated with a four parameter logistic model using GraphPad Prism 6.0 software.

[3] = molecular target: T1, cynomolgus PDGF-BB; test: SPR, IgG on immobilized cynomolgus PDGF-BB (Example 18)
Procedure: as §1

[4] = molecular target: T2, murine PDGF-BB (murine, UniProt P31240 82-190); test: ELISA, immobilized murine PDGF-BB (Example 11)
T2 construct: also called muPDGF-BB
Procedure: as §2, with “antigen murine” for “antigen rat”, “PDGF-BB (Peprotech 315-18)” for “PDGF-BB (R&D, 520-BB)”

[5] = molecular target: T3, human PDGF-BB (human, UniProt P01127 82-190); test: SPR, IgG
T3 construct: Bought recombinant protein (Cell Signaling 8921BF or R&D Systems 220-BB); also called huPDGF-BB; recombinant human PDGF-BB
T3 sequence (P01127 82-190 limits assumed): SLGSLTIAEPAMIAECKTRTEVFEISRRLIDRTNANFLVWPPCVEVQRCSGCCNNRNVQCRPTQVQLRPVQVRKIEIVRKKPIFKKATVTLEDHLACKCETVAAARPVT

rat PDGF-BB, sequence (Q05028 74-182): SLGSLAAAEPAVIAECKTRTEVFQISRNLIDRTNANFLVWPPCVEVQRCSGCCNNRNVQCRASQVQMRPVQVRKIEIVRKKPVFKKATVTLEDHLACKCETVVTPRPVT
T2 sequence (P31240 82-190): as the sequence (Q05028 74-182) above, with V83I, V102I counted along it
T1 sequence (A0A2K5UX81 entry or part of it limits assumed): as the sequence (P01127 82-190 limits assumed) above, with I7V counted along it

Binder	Kd [1] [nM]	EC50 [2] [µg/mL]	koff [3] [s⁻¹]	kon [3] [M⁻¹ s⁻¹]	EC50 [4] [µg/mL]	T½ [5] [h]
antibody 0060 (antibody, V domains shown, Human antibody from a human Ig locus transgenic rabbit; IgG) VH: EVQLLESGGDLVQPGGSLRLSCAASGFTFRSYAMSWVRQAPGKGLEWVSGISAGGGYIYYADSVTGRFTSSRDNYKNTLYLQMNRLRVEDTAVYYCARFYPGYNSDTYYYDGMDVWGQGTTVTVSS VL: not shown	< 0.0303	0.11	< 1e-05	330000	0.0428	1.9
antibody 0058 (antibody, V domains shown, Human antibody from a human Ig locus transgenic rabbit; IgG) VH: EVQLVESGGGLVQPGGSLRLSCAASGFTFSSFWMTWVRQAPGKGLEWVASISAGGGITHYPDSVKDRFTVSRDNAKNSLYLQLNSLRAEDTAVYYCAESGGDIYSDFDYWGQGTLVTVSS VL: not shown	0.0288	0.0966	6.53e-05	2.27e+06	0.0332	1.42
antibody 0064 (antibody, V domains shown, Human antibody from a human Ig locus transgenic rabbit; IgG) VH: EVQLVESGGGLVQPGGSLRLSCAASGFTFSSYWMSWVRQAPGKGLEWVSTISDGGGTTSYADSVKGRFTISRDNSKNTLYLQMNSLRAEDTAVYSCAESGGATDYLFDYWGQGTLVTVSS VL: not shown	0.0596	0.00369	4.42e-05	740000	0.00268	1.9
